Experimental data reported in the RNAGym collection of RNA variant scans (doi:10.7554/elife.80360).

B1: HDV Ribozyme (parent)
chain: GGCCGGCAUGGUCCCAGCCUCCUCGCUGGCGCCGGCUGGGCAACAUUCCGAGGGGACCGUCCCCUCGGUAAUGGCGAAUGGGACCCA

Variants of: B1
Assay: self-cleavage, relative activity (ratio to wild type); higher = more cleavage; co-transcriptional
Work on GGCCGGCAUGGUCCCAGCCUCCUGGCUGGCGCCGGCCGGGCAACAUUCCGAGGGGACCGUCCCCUCGGUAAUGGCGAAUGGGACCCA [C24G U37C] yielded a self-cleavage of 0.119. With GGCCGGCAUGGUCCCAGCCUCCUGGCUGGCGCCGGCUGGGCAACAUUCCGAGGGGACCGUCCCCUCUGUAAUGGCGAAUGGGACCCA [C24G G67U] the self-cleavage was 0.135. Work on GGCCGGCAUGGUCCCAGCCUCCUGGCUGGCGCCGGCUGCGCAACAUUCCGAGGGGACCGUCCCCUCGGUAAUGGCGAAUGGGACCCA [C24G G39C] yielded a self-cleavage of 0.18. For GGCCGGCAUGGUCCCAGCCUCCUGGCUGGCGCCGGCUGAGCAACAUUCCGAGGGGACCGUCCCCUCGGUAAUGGCGAAUGGGACCCA [C24G G39A], the self-cleavage was 0.0845. GGCCGGCAUGGUCCCAGCCUCCUGGCUGGCGCCGGCUGGGCAACAUUCCGAGGGGACCGUCCCCUCGGUAAUGGCGAAUAGGACCCA [C24G G80A] showed a self-cleavage of 0.0791. GGCCGGCAUGGUCCCAGCCUCCUGGCUGGCGCCGGCUGGGCAACAUUCCGAGGGGACCGUCCCCUCGGUAAUGGCGAAUUGGACCCA [C24G G80U] gave a self-cleavage of 0.0746. GGCCGGCAUGGUCCCAGCCUCCUGGCUGGCGCCGGCUGGGCAACAUUCCGAAGGGACCGUCCCCUCGGUAAUGGCGAAUGGGACCCA [C24G G52A] gave a self-cleavage of 0.123. Work on GGCCGGCAUGGUCCCAGCCUCCUGGCUGGCGCCGGCUGGGCAACAUUCCGAGGGGACCGUCCCCUCGGUAAUGGCGAAUGAGACCCA [C24G G81A] yielded a self-cleavage of 0.0332. Variant GGCCGGCAUGGUCCCAGCCUCCUGGCUGGCGCCGGCUGGGCAACAUUCCGAGGGGACCGUCCCCUCGGGAAUGGCGAAUGGGACCCA [C24G U69G] has a self-cleavage of 0.332. With GGCCGGCAUGGUCCCAGCCUCCUGGCUGGCGCCGGCUGGGCAACAUUCCGAGGGGACCGUCCCCUCGGCAAUGGCGAAUGGGACCCA [C24G U69C] the self-cleavage was 0.0354. With GGCCGGCAUGGUCCCAGCCUCCUUGCUGGCGCCGGCUGGGCAUCAUUCCGAGGGGACCGUCCCCUCGGUAAUGGCGAAUGGGACCCA [C24U A43U] the self-cleavage was 0.182. Work on GGCCGGCAUGGUCCCAGCCUCCUUGCUGGCGCCGGCUGGGCAGCAUUCCGAGGGGACCGUCCCCUCGGUAAUGGCGAAUGGGACCCA [C24U A43G] yielded a self-cleavage of 0. GGCCGGCAUGGUCCCAGCCUCCUGGCUGGCGCCGGCUGGGCAACAUUCCGAGGGGACCGUCCCCUCGGUAAUCGCGAAUGGGACCCA [C24G G73C] showed a self-cleavage of 0.107. In the case of GGCCGGCAUGGUCCCAGCCUCCUGGCUGGCGCCGGCUGGGCAACAUUCCGAGGGGACCGUCCCCUCGGUAAUGGCGAAGGGGACCCA [C24G U79G], the self-cleavage is reported as 0. Work on GGCCGGCAUGGUCCCAGCCUCCUGGCUGGCGCCGGCUGGGCAACAUUCCGAGGGGACCGUCCCCUCGGUAAUGGCGAACGGGACCCA [C24G U79C] yielded a self-cleavage of 0.165. For GGCCGGCAUGGUCCCAGCCUCCUGGCUGGCGCCGGCUGGGCAACAUUCCGAGGGGACCGUCCUCUCGGUAAUGGCGAAUGGGACCCA [C24G C63U], the self-cleavage was 0.0875. GGCCGGCAUGGUCCCAGCCUCCUGGCUGGCGCCGGCUGGGCAACAUUCCGAGGGGACCGUCCACUCGGUAAUGGCGAAUGGGACCCA [C24G C63A] showed a self-cleavage of 0.18. In the case of GGCCGGCAUGGUCCCAGCCUCCUGGCUGGCGCCGGCUGGGCAACAUUCCGAGGGGACCGUCCCCUCGGUAAUGGCGAAUGGGAGCCA [C24G C84G], the self-cleavage is reported as 0.0811. In the case of GGCCGGCAUGGUCCCAGCCUCCUGGCUGGCGCCGGCUGGGCAACAUUCCGAGGGGACCGUCCCCUCGGUAAUGGCUAAUGGGACCCA [C24G G76U], the self-cleavage is reported as 0.339. For GGCCGGCAUGGUCCCAGCCUCCUGGCUGGCGCCGGCUGGGCAACAUUCCGAGGGGACCGUCCCCUCGGUAAUGGCAAAUGGGACCCA [C24G G76A], the self-cleavage was 0.101. GGCCGGCAUGGUCCCAGCCUCCUGGCUGGCGCCGGCUGGGCAACAUUCCGAGGGGACCGUCCCCUCGGUAAUGGCGAAUGGGACGCA [C24G C85G] showed a self-cleavage of 0.125. Variant GGCCGGCAUGGUCCCAGCCUCCUGGCAGGCGCCGGCUGGGCAACAUUCCGAGGGGACCGUCCCCUCGGUAAUGGCGAAUGGGACCCA [C24G U27A] has a self-cleavage of 0.0437. GGCCGGCAUGGUCCCAGCCUCCUGGCUGGCGCCGGCUGGGCAACAUUCCGAGGGGACCGUCCCCCCGGUAAUGGCGAAUGGGACCCA [C24G U65C] gave a self-cleavage of 0.224. GGCCGGCAUGGUCCCAGCCUCCUGGCUGGCGCCGGCUGGGCAACAUUCCAAGGGGACCGUCCCCUCGGUAAUGGCGAAUGGGACCCA [C24G G50A] gave a self-cleavage of 0.104. In the case of GGCCGGCAUGGUCCCAGCCUCCUGGCUGGCGCCGGCUGGGCAACAUUCCGAGGAGACCGUCCCCUCGGUAAUGGCGAAUGGGACCCA [C24G G54A], the self-cleavage is reported as 0. GGCCGGCAUGGUCCCAGCCUCCUGGCUGGCGCCGGCUGGGCAACAUUCCGAGGUGACCGUCCCCUCGGUAAUGGCGAAUGGGACCCA [C24G G54U] gave a self-cleavage of 0.183. With GGCCGGCAUGGUCCCAGCCUCCUGGCUGGCGCCGGCUGGGCAACAUUCCGAGGCGACCGUCCCCUCGGUAAUGGCGAAUGGGACCCA [C24G G54C] the self-cleavage was 0.0511. Work on GGCCGGCAUGGUCCCAGCCUCCUGGCUGGCGCCGGCUGGGCAACAUUCCGAGGGGACCGUCCCCUAGGUAAUGGCGAAUGGGACCCA [C24G C66A] yielded a self-cleavage of 0.0723. Variant GGCCGGCAUGGUCCCAGCCUCCUGGCUGGCGCCGGCUGGGCAACAUCCCGAGGGGACCGUCCCCUCGGUAAUGGCGAAUGGGACCCA [C24G U47C] has a self-cleavage of 0.0462. With GGCCGGCAUGGUCCCAGCCUCCUGGCUGGCGCCGUCUGGGCAACAUUCCGAGGGGACCGUCCCCUCGGUAAUGGCGAAUGGGACCCA [C24G G35U] the self-cleavage was 0. GGCCGGCAUGGUCCCAGCCUCCUGGCUGGCGCCGGCUUGGCAACAUUCCGAGGGGACCGUCCCCUCGGUAAUGGCGAAUGGGACCCA [C24G G38U] showed a self-cleavage of 0.0268. For GGCCGGCAUGGUCCCAGCCUCCUGGCUGGCGCCGGCUGGGCAACAUUCCGAGGGGAGCGUCCCCUCGGUAAUGGCGAAUGGGACCCA [C24G C57G], the self-cleavage was 0.192.
